Experimental findings from patent publication US20250296996A1, “ANGIOPOIETIN-RELATED PROTEIN 7-SPECIFIC ANTIBODIES AND USES THEREOF” (Broadwing Bio, Inc., priority 2022, published 2025) are described below.

Entries after “also recorded” stand apart in the source; their conditions may differ.

This experiment has as its system 3D human trabecular meshwork (HTM) cells co-cultured with human Schlemms' canal (HSC) cells. Put plainly: Outflow facility in bioengineered 3D HTM/HSC ex vivo human eye tissue model, ANGPTL7 or dexamethasone. The format is cell-based. Conditions: 3D-HTM donors; 500 nM Dexamethasone or 50 ng/mL ANGPTL7 vs vehicle (DMSO). The method, then:
Experiments were conducted to determine the effects of ANGPTL7 on outflow facility in a bioengineered ex vivo human eye tissue model. Glauconix developed a proprietary technology allowing multi-layer growth of bioengineered 3D human trabecular meshwork (HTM) cells co-cultured with human Schlemms' canal (HSC) cells, thereby mimicking the architecture of the tissues responsible for pressure build-up in the human eye (FIG. 3A). This allows endpoint analyses relevant to IOP-modulation. This scaffolding of cells is used to compare treatment effects of vehicle (DMSO), dexamethasone (a steroid known to elevate IOP), and human ANGPTL7 protein on outflow facility.
Briefly, HTM cells were thawed and allowed to grow for about 7 days (media changes every 2 days). The HTM cells were seeded onto scaffolds and HSC cells were thawed on the same day; the HTM cells were allowed to grow for 7 days on the scaffolds with media changes every 2 days. HSCs were co-cultured on the back side of the HTM scaffolds and grown for 10-12 days with media changes every 2 days. […]
Samples were analyzed using One-way ANOVA (GraphPad Prism Software, Inc., La Jolla, CA), *P<0.05, **P<0.0.01, ***P<0.001 N=4 per treatment group. […] […]

B1: ANGPTL7: human ANGPTL7 protein (angiopoietin-related protein 7), made by Biortus, used as treatment at 50 ng/mL (protein)
chain: QKLSKHKTPAQPQLKAANCCEEVKELKAQVANLSSLLSELNKKQERDWVSVVMQVMELESNSKRMESRLTDAESKYSEMNNQIDIMQLQAAQTVTQTSADAIYDCSSLYQKNYRISGVYKLPPDDFLGSPELEVFCDMETSGGGWTIIQRRKSGLVSFYRDWKQYKQGFGSIRGDFWLGNEHIHRLSRQPTRLRVEMEDWEGNLRYAEYSHFVLGNELNSYRLFLGNYTGNVGNDALQYHNNTAFSTKDKDNDNCLDKCAQLRKGGYWYNCCTDSNLNGVYYRLGEHNKHLDGITWYGWHGSTYSLKRVEMKIRPEDFKP
B1: the outflow facility entry is recorded as “reduced outflow facility; also recorded: significantly decreased outflow facility”.
